Values belong to the molecule of their own block, whether it stands above or below them.
Experiments:
[1] = test system: IAP proteins (GST fusion form); test: GST pull-down of purified IAP proteins with Smac, silver staining; format: binding, human; conditions: equimolar concentrations, 2 hours at 4° C., FIG. 4
Protocol: The ability of various IAP proteins to bind Smac WT polypeptide and Smac ΔA mutant polypeptide was also examined. The results are depicted in FIG. 4. Briefly, purified IAP proteins (GST fusion form; as indicated in FIG. 4) were incubated with equimolar concentrations of either Smac or Smac ΔA in a buffer containing 20 mM phosphate (pH 7.4), 200 mM NaCl and 0.05% Tween 20 for 2 hours at 4° C. The GST-fused IAP proteins were pulled down by Glutathione Sepharose beads. The resulting […] were subjected to SDS-PAGE followed by silver staining. Lane M of FIG. 4 is the protein marker. […] The reason for this IBM-independent acceleration on XIAP and Livin ubiquitylation is unknown.

Livin α = molecular target: T1, Livin α (Homo sapiens, UniProt Q96CA5); test: Co-transfection of HeLa cells with Livin α and Smac plasmids, Western blot; format: cell-based; conditions: for auto-ubiquitylation of Livin: FIG. 3B
T1 construct: expressed in transfected cells; host or cells: HeLa
T1 sequence (Q96CA5 1-298): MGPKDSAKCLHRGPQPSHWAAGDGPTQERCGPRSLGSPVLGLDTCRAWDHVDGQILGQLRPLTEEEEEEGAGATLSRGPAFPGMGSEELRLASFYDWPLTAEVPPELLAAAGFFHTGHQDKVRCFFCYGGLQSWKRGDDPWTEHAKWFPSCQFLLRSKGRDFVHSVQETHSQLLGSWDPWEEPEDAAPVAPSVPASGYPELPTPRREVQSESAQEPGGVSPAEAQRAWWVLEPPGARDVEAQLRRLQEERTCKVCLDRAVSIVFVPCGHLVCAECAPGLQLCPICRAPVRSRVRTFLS
Protocol: (§1) Transfection of cultured Cells—HeLa cells were grown in DMEM supplemented with 10% fetal bovine serum. Cells were seeded onto 6-well plates the day before transfection and transfected at 70% confluence by using Lipofectin combined with Plus reagent (Invitrogen) according to the manufacture's protocols. The IAP expression plasmids (3 μg each for c-IAP1, c-IAP2 and XIAP, and 250 ng each for Livin αand Livin β) together with 2.5 μg of Smac expression plasmids or pcDNA3.1(−) blank plasmid were used for single-well transfection in the absence of antibiotics. The cells were harvested 12 hours after the transfection and lysed with 0.5% CHAPS in 20 mM HEPES (pH 7.4), 10 mM KCl, 1 mM MgCl2 and 1 mM DTT. The lysates were centrifuged and the protein concentrations of the supernatants were quantified by the modified Bradford method (36).
(§2) Western Blot analysis—Proteins were resolved by SDS-PAGE and transferred to nitrocellulose filters. The filters were blocked with 5% milk and probed with antibodies as indicated. The signals were visualized with the enhanced chemiluminescence method.
In the current study, Livin was also transiently expressed in HeLa cells to determine the ubiquitylation activity (see FIG. 3B). Briefly, Livin α WT or H269A mutant plasmids together with Smac WT or Smac ΔA mutant, or with pcDNA3.1(−) blank plasmid, were co-transfected into HeLa cells. As controls, HeLa cells were also transfected with either Smac WT or ΔA plasmids together with the blank p3×FLAG-CMV-7 plasmid. The transfected cells were cultivated either in the absence (see lanes 1-7 of FIG. 3B) or in the presence (see lane 8-14 of FIG. 3B) of MG132. Equal amounts of soluble proteins (7 μg) from the transfected cells were immunoblotted with either the HRP-conjugated anti-FLAG antibody (see top panel of FIG. 3B) to detect N-terminal 3×FLAG tagged IAPs, or with the anti-c-Myc antibody (see middle panel of FIG. 3B) to detect Smac. The anti-Actin immunoblotting results were to show equal protein loading (see bottom panel of FIG. 3B). […]

XIAP = XIAP (Homo sapiens, UniProt P98170); test: Co-transfection of HeLa cells with XIAP and Smac plasmids, Western blot; format: cell-based; design: expressed in transfected cells; host or cells: HeLa; conditions: for XIAP ubiquitylation: co-transfection
Sequence of XIAP (P98170 whole entry): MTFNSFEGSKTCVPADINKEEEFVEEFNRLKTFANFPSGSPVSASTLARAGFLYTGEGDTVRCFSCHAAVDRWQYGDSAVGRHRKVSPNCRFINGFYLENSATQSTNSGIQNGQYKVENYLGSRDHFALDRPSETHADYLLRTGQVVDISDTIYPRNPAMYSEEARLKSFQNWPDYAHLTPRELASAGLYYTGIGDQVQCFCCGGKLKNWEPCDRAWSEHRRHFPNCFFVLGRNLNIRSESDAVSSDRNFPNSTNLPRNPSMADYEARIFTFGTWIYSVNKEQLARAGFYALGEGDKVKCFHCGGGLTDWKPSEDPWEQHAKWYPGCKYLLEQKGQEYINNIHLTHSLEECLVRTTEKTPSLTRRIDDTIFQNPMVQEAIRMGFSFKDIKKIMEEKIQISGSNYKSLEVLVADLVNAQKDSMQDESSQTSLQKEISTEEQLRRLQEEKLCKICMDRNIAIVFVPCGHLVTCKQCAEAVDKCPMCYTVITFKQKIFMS
Protocol: as §1, §2
To investigate the effect of Smac polypeptide on IAP protein levels, HeLa cells were transfected with the expression vectors for Smac and various IAPs. Briefly, HeLa cells were either transfected with IAP alone (Lane 2, 4 and 6), or together with Smac polypeptide (Lane 3, 5 and 7), or with Smac polypeptide alone (Lane 1). Equal amounts of cell lysates (7 μg) were immunoblotted with either the HRP-conjugated anti-FLAG antibody (shown in the top panel) in order to detect N-terminal 3×FLAG tagged IAPs, or with the anti-c-Myc antibody (bottom panel) to detect C-terminal c-Myc tagged Smac. The ubiquitin fusion technique was used to secure the production of mature Smac protein with the expected N-terminal AVPI motif (6, 37).
It is known that XIAP is ubiquitylated by its own E3 activity when expressed in HEK 293T cells and that this auto-ubiquitylation and subsequent degradation is stimulated by Reaper (26). In the current study, XIAP transiently expressed in HeLa cells was ubiquitylated as well; however, mono-ubiquitylation rather than poly-ubiquitylation of XIAP was the major product (see FIG. 3A). Briefly, XIAP WT or H467A mutant plasmids together with either Smac WT or ΔA, or with pcDNA3.1(−) blank plasmid, were co-transfected into the HeLa cells. As controls, HeLa cells were also transfected with either Smac WT or ΔA plasmids together with the blank p3×FLAG-CMV-7 plasmid. The transfected cells were cultivated either in the absence (see lanes 1-7 of FIG. 3A) or in the presence (see lanes 8-14 of FIG. 3A) of MG132. Equal amounts of soluble proteins (7 μg) from the transfected cells were immunoblotted with either the HRP-conjugated anti-FLAG antibody (see top panel of FIG. 3A) to detect N-terminal 3×FLAG tagged IAPs, or with the anti-c-Myc antibody (see middle panel of FIG. 3A) to detect Smac. The anti-Actin immunoblotting results were to show equal protein loading (see bottom panel of FIG. 3A).

- binding to IAP proteins [1]: failure to bind
- binding to IAP proteins ([1]; listed as Smac mutant lacking the initial Ala residue): did not bind IAP proteins
B1: Smac ΔA: Smac mutant lacking the initial Ala (Ala deletion mutant polypeptide), used as negative control (protein, UniProt Q9NR28 22-239, looked up, variant A1*)
Diablo IAP-binding …: LCVPVVANFKKRCFSELIRPWHKTVTIGFGVTLCVPIAQKSEPHSLSSEALMRRAVSLVTDSTSTFLSQTTYALIEAITEYTKAVYTLTSLYRQYTSLLGKMNSEEEDEVWQVIIGARAEMTSKHQEYLKLETTWMTAVGLSEMAAEAAYQTGADQASITARNHIQLVKLQVEEVHQLSRKAETKLAEAQIEELRQKTQEEGEERAESEQEAYLRED
- auto-ubiquitylation of Livin (Livin α): stimulated the auto-ubiquitylation of XIAP and Livin
- XIAP ubiquitylation (XIAP; FIG. 3A): stimulated the auto-ubiquitylation of XIAP and Livin

- binding to IAP proteins [1]: bind
- level of XIAP (XIAP; co-expression, absence of MG132): negligible effect
- overall amount of XIAP (XIAP; co-transfected Smac, FIG. 3A): not significantly affected
- XIAP ubiquitylation (XIAP; FIG. 3A): still promoted XIAP ubiquitylation
- protein level of XIAP (XIAP; mature Smac co-expressed, FIG. 1): unaffected
B2: Smac: wild type (WT) Smac polypeptide from Homo sapiens, SEQ ID NO 1, 239 amino acids; second mitochondria-derived activator of caspase (protein, listed as Homo sapiens)
chain: MAALKSWLSRSVTSFFRYRQCLCVPVVANFKKRCFSELIRPWHKTVTIGFGVTLCAVPIAQKSEPHSLSSEALMRRAVSLVTDSTSTFLSQTTYALIEAITEYTKAVYTLTSLYRQYTSLLGKMNSEEEDEVWQVIIGARAEMTSKHQEYLKLETTWMTAVGLSEMAAEAAYQTGADQASITARNHIQLVKLQVEEVHQLSRKAETKLAEAQIEELRQKTQEEGEERAESEQEAYLRED
- auto-ubiquitylation of Livin (Livin α): effectively stimulates auto-ubiquitylation of Livin α
- degradation of Livin α (Livin α; absence of MG132, FIG. 3B): slightly promoted the degradation of Livin α

Reference: patent publication US20060019335A1, “Compositions and methods to promote c-IAP autodegradation” (priority 2004, published 2006)
